According to article PMC3587310 (Biochemistry, 2013):

Target: the molecule itself
Assay: crystal structure

B1: S. elongatus KaiC A422V mutant protein (natural protein, Synechococcus elongatus, UniProt Q79PF4 1-519, looked up)
chain: MTSAEMTSPNNNSEHQAIAKMRTMIEGFDDISHGGLPIGRSTLVSGTSGTGKTLFSIQFLYNGIIEFDEPGVFVTFEETPQDIIKNARSFGWDLAKLVDEGKLFILDASPDPEGQEVVGGFDLSALIERINYAIQKYRARRVSIDSVTSVFQQYDASSVVRRELFRLVARLKQIGATTVMTTERIEEYGPIARYGVEEFVSDNVVILRNVLEGERRRRTLEILKLRGTSHMKGEYPFTITDHGINIFPLGAMRLTQRSSNVRVSSGVVRLDEMCGGGFFKDSIILATGATGTGKTLLVSRFVENACANKERAILFAYEESRAQLLRNAYSWGMDFEEMERQNLLKIVCAYPESAGLEDHLQIIKSEINDFKPARIAIDSLSALARGVSNNAFRQFVIGVTGYAKQEEITGLFTNTSDQFMGVHSITDSHISTITDTIILLQYVEIRGEMSRAINVFKMRGSWHDKAIREFMISDKGPDIKDSFRNFERIISGSPTRITVDEKSELSRIVRGVQEKGPES
modifications: phosphothreonine at T432 in all six subunits; S431 not phosphorylated
stoichiometry N: 6
